In the supplement of paper PMC10567573 one finds protein stability index data, which are given here for 94 variants.

B1: EMD (parent)
chain: YQSKGYNDDYYEESYFTTRTYGEP
B2: S100A14 (parent)
chain: KIANLGSCNDSKLEFRSFWELIGE
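Also: lentivirally expressed fusions sorted by FACS into six bins by GFP to DsRed ratio, PSI derived from sequencing read proportions per bin multiplied by bin number.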

In one data set the parent is B1. The experiment in a line: protein stability index of a GFP-peptide fusion (GPS, HEK-293T) (PSI 1-6); higher = more stable. The following applies: c terminus: a fixed tail appended.
Take YQSKGYNDDYYEESYFTTRPYGEP [T20P]: the protein stability index was determined as 2.17.

On to YQSKGYNDDYYEESYFTTRVYGEP [T20V], for which the protein stability index was determined as 2.1.

The variants in another data set derive from B2. The data set is described as above. The note with it: c terminus: a fixed tail appended.
As to MIANLGSCNDSKLEFRSFWELIGE [K1M], the protein stability index was 1.59.

Consider CIANLGSCNDSKLEFRSFWELIGE [K1C], for which the protein stability index was 1.92.

For the variant GIANLGSCNDSKLEFRSFWELIGE [K1G], the protein stability index stood at 2.04.

As to TIANLGSCNDSKLEFRSFWELIGE [K1T], the protein stability index was 2.13.

NIANLGSCNDSKLEFRSFWELIGE [K1N]: the protein stability index is 1.41.

With DIANLGSCNDSKLEFRSFWELIGE [K1D], the protein stability index turned out to be 1.86.

As to AIANLGSCNDSKLEFRSFWELIGE [K1A], the protein stability index is 1.98.

With HIANLGSCNDSKLEFRSFWELIGE [K1H], the protein stability index was 1.61.

IIANLGSCNDSKLEFRSFWELIGE [K1I]: the protein stability index worked out at 1.79.

Regarding FIANLGSCNDSKLEFRSFWELIGE [K1F], the protein stability index was 2.99.

For the variant EIANLGSCNDSKLEFRSFWELIGE [K1E], the protein stability index was determined as 1.84.

As to RIANLGSCNDSKLEFRSFWELIGE [K1R], the protein stability index was 1.59.

With LIANLGSCNDSKLEFRSFWELIGE [K1L], the protein stability index is 1.15.

For SIANLGSCNDSKLEFRSFWELIGE [K1S], the protein stability index came to 2.19.

Turning to WIANLGSCNDSKLEFRSFWELIGE [K1W], the protein stability index came out at 3.31.

As to QIANLGSCNDSKLEFRSFWELIGE [K1Q], the protein stability index amounted to 2.02.

As to PIANLGSCNDSKLEFRSFWELIGE [K1P], the protein stability index stood at 1.95.

As to KIANQGSCNDSKLEFRSFWELIGE [L5Q], the protein stability index is 2.17.

In the case of KIANEGSCNDSKLEFRSFWELIGE [L5E], the protein stability index was determined as 2.74.

Consider KIANNGSCNDSKLEFRSFWELIGE [L5N], for which the protein stability index was found to be 2.44.

Regarding KIANPGSCNDSKLEFRSFWELIGE [L5P], the protein stability index was found to be 2.08.

Consider KIANTGSCNDSKLEFRSFWELIGE [L5T], for which the protein stability index worked out at 1.62.

Turning to KIANIGSCNDSKLEFRSFWELIGE [L5I], the protein stability index is 1.41.

Consider KIANSGSCNDSKLEFRSFWELIGE [L5S], for which the protein stability index worked out at 2.29.

As for KIANGGSCNDSKLEFRSFWELIGE [L5G], the protein stability index amounted to 1.72.

In the case of KIANMGSCNDSKLEFRSFWELIGE [L5M], the protein stability index is 1.85.

As for KIANRGSCNDSKLEFRSFWELIGE [L5R], the protein stability index worked out at 2.25.

Regarding KIANVGSCNDSKLEFRSFWELIGE [L5V], the protein stability index was 2.09.

KIANDGSCNDSKLEFRSFWELIGE [L5D]: the protein stability index amounted to 2.67.

Turning to KIANAGSCNDSKLEFRSFWELIGE [L5A], the protein stability index was found to be 1.89.

KIANKGSCNDSKLEFRSFWELIGE [L5K]: the protein stability index stood at 2.89.

With KIANHGSCNDSKLEFRSFWELIGE [L5H], the protein stability index was determined as 1.88.

Regarding KIANCGSCNDSKLEFRSFWELIGE [L5C], the protein stability index was found to be 2.27.

Regarding KIANYGSCNDSKLEFRSFWELIGE [L5Y], the protein stability index is 1.53.

Take KIANFGSCNDSKLEFRSFWELIGE [L5F]: the protein stability index was determined as 2.03.

Turning to KIVNLGSCNDSKLEFRSFWELIGE [A3V], the protein stability index is 2.78.

For the variant KISNLGSCNDSKLEFRSFWELIGE [A3S], the protein stability index came to 1.66.

KIFNLGSCNDSKLEFRSFWELIGE [A3F]: the protein stability index is 3.12.

In the case of KILNLGSCNDSKLEFRSFWELIGE [A3L], the protein stability index came to 1.09.

With KIENLGSCNDSKLEFRSFWELIGE [A3E], the protein stability index was 1.95.

Regarding KIRNLGSCNDSKLEFRSFWELIGE [A3R], the protein stability index is 1.33.

Take KIKNLGSCNDSKLEFRSFWELIGE [A3K]: the protein stability index was determined as 1.53.

As for KIGNLGSCNDSKLEFRSFWELIGE [A3G], the protein stability index was 2.48.

KIMNLGSCNDSKLEFRSFWELIGE [A3M]: the protein stability index was determined as 2.69.

For the variant KIWNLGSCNDSKLEFRSFWELIGE [A3W], the protein stability index worked out at 2.28.

In the case of KIDNLGSCNDSKLEFRSFWELIGE [A3D], the protein stability index came out at 1.97.

For the variant KITNLGSCNDSKLEFRSFWELIGE [A3T], the protein stability index came to 1.65.

Take KICNLGSCNDSKLEFRSFWELIGE [A3C]: the protein stability index stood at 1.62.

In the case of KIHNLGSCNDSKLEFRSFWELIGE [A3H], the protein stability index was 2.38.

With KIINLGSCNDSKLEFRSFWELIGE [A3I], the protein stability index amounted to 1.74.

With KIQNLGSCNDSKLEFRSFWELIGE [A3Q], the protein stability index was 1.98.

In the case of KINNLGSCNDSKLEFRSFWELIGE [A3N], the protein stability index is 1.54.

Regarding KIPNLGSCNDSKLEFRSFWELIGE [A3P], the protein stability index came out at 1.23.

On to KIYNLGSCNDSKLEFRSFWELIGE [A3Y], for which the protein stability index amounted to 1.79.

Consider KKANLGSCNDSKLEFRSFWELIGE [I2K], for which the protein stability index stood at 1.54.

Take KNANLGSCNDSKLEFRSFWELIGE [I2N]: the protein stability index stood at 1.6.

Turning to KQANLGSCNDSKLEFRSFWELIGE [I2Q], the protein stability index is 1.32.

As for KTANLGSCNDSKLEFRSFWELIGE [I2T], the protein stability index was found to be 2.

Take KFANLGSCNDSKLEFRSFWELIGE [I2F]: the protein stability index is 1.55.

In the case of KHANLGSCNDSKLEFRSFWELIGE [I2H], the protein stability index amounted to 2.31.

For the variant KAANLGSCNDSKLEFRSFWELIGE [I2A], the protein stability index amounted to 1.77.

For KDANLGSCNDSKLEFRSFWELIGE [I2D], the protein stability index was 1.61.

With KEANLGSCNDSKLEFRSFWELIGE [I2E], the protein stability index is 1.77.

On to KRANLGSCNDSKLEFRSFWELIGE [I2R], for which the protein stability index came out at 2.13.

For the variant KLANLGSCNDSKLEFRSFWELIGE [I2L], the protein stability index amounted to 1.8.

In the case of KVANLGSCNDSKLEFRSFWELIGE [I2V], the protein stability index came out at 1.88.

For the variant KPANLGSCNDSKLEFRSFWELIGE [I2P], the protein stability index amounted to 2.12.

For the variant KGANLGSCNDSKLEFRSFWELIGE [I2G], the protein stability index came to 2.

KMANLGSCNDSKLEFRSFWELIGE [I2M]: the protein stability index amounted to 1.99.

Regarding KYANLGSCNDSKLEFRSFWELIGE [I2Y], the protein stability index was 1.57.

In the case of KSANLGSCNDSKLEFRSFWELIGE [I2S], the protein stability index is 2.9.

With KWANLGSCNDSKLEFRSFWELIGE [I2W], the protein stability index came to 1.88.

As for KCANLGSCNDSKLEFRSFWELIGE [I2C], the protein stability index was 1.22.

As to KIADLGSCNDSKLEFRSFWELIGE [N4D], the protein stability index stood at 1.73.

KIAGLGSCNDSKLEFRSFWELIGE [N4G]: the protein stability index is 2.83.

Take KIAVLGSCNDSKLEFRSFWELIGE [N4V]: the protein stability index is 1.98.

KIAILGSCNDSKLEFRSFWELIGE [N4I]: the protein stability index was determined as 1.9.

Take KIAFLGSCNDSKLEFRSFWELIGE [N4F]: the protein stability index came to 2.7.

As for KIAHLGSCNDSKLEFRSFWELIGE [N4H], the protein stability index was 2.71.

With KIAMLGSCNDSKLEFRSFWELIGE [N4M], the protein stability index worked out at 1.64.

In the case of KIARLGSCNDSKLEFRSFWELIGE [N4R], the protein stability index is 1.07.

For KIAYLGSCNDSKLEFRSFWELIGE [N4Y], the protein stability index stood at 2.32.

In the case of KIASLGSCNDSKLEFRSFWELIGE [N4S], the protein stability index turned out to be 2.

Take KIAQLGSCNDSKLEFRSFWELIGE [N4Q]: the protein stability index was determined as 1.72.

As to KIAALGSCNDSKLEFRSFWELIGE [N4A], the protein stability index is 2.01.

Regarding KIAELGSCNDSKLEFRSFWELIGE [N4E], the protein stability index is 1.68.

On to KIATLGSCNDSKLEFRSFWELIGE [N4T], for which the protein stability index was 1.7.

For the variant KIACLGSCNDSKLEFRSFWELIGE [N4C], the protein stability index is 1.75.

For KIAPLGSCNDSKLEFRSFWELIGE [N4P], the protein stability index turned out to be 1.83.

With KIAKLGSCNDSKLEFRSFWELIGE [N4K], the protein stability index came to 3.15.

On to KIAWLGSCNDSKLEFRSFWELIGE [N4W], for which the protein stability index was found to be 2.55.

Consider KIALLGSCNDSKLEFRSFWELIGE [N4L], for which the protein stability index is 1.67.
